Laboratory results as given in patent publication US20260242444A1 (SUZHOU FORLONG BIOTECHNOLOGY, published 2026).
Blank lines part the entries; values can stand above or below the molecule they belong to.

How the values were obtained:
IL-15R β protein = IL-15R β protein (UniProt P14784); test: BLI (Octet-RED), IL-15Rβ immobilized on Ni-NTA biosensors, serial dilutions of the complex as analyte, global 1:1 fit
FL115-WT = FL115-WT (Homo sapiens (Human), UniProt P40933 49-162); test: as above
Protocol: The binding activity of an agonistic interleukin 15 complex to the receptor IL-15R β was assayed using an Octet-RED (Pall ForteBio) Bio-Layer Interferometry (BLI) instrument. […] 6.2 (2022): e2100966, PMID: 35174992). The baseline was established in kinetics buffer and loaded biosensors were dipped into wells containing serial dilutions of an agonistic interleukin 15 complex for 300 s. FL115 (also named FL115-V2), an agonistic interleukin 15 complex according to an embodiment of the application, contains a monomeric IL-15 receptor αSu/Fc fusion protein having the amino acid sequence of SEQ ID NO: 2 and a mutant IL15 having the amino acid sequence of SEQ ID NO: 3. FL115-WT, another agonistic interleukin 15 complex according to an embodiment of the application, contains a monomeric IL-15 receptor αSu/Fc fusion protein having the amino acid sequence of SEQ ID NO: 2 and the wild-type IL15 having the amino acid sequence of SEQ ID NO: 4. The agonistic interleukin 15 complex was bound to the immobilized IL-15R β protein. The binding complexes of the IL-15R β protein-agonistic IL15 complex were then allowed to dissociate in kinetics buffer. Global data fitting to a 1:1 binding model was used to estimate the affinity using Data Analysis software version 8.1.

FL115-WT, sequence (chain, as listed by the source limits assumed, chain 1 of 2): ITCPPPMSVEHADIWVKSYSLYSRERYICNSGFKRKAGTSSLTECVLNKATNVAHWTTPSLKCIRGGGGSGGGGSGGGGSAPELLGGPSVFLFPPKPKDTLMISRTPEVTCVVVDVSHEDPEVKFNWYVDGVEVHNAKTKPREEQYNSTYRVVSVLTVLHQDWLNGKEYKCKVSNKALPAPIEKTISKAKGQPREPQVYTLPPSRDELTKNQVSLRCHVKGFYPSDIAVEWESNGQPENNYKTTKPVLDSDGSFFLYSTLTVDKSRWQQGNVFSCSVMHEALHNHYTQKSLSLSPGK
FL115-WT, sequence (P40933 49-162 limits assumed, chain 2 of 2): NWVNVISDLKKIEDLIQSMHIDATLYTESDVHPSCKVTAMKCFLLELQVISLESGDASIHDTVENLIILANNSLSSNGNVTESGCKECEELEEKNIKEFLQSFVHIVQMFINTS

- Kd (IL-15R β protein): 3.9 nM
- koff (IL-15R β protein): 0.000235 s⁻¹
- kon (IL-15R β protein): 60400 M⁻¹ s⁻¹
Molecule: ALT 803 (Fc fusion)

- Kd (FL115-WT): 62.7 nM
- koff (FL115-WT): 0.00108 s⁻¹
- kon (FL115-WT): 17200 M⁻¹ s⁻¹
B1: IL-15R β protein (receptor, UniProt P14784 27-239, looked up)
chain: AVNGTSQFTCFYNSRANISCVWSQDGALQDTSCQVHAWPDRRRWNQTCELLPVSQASWACNLILGAPDSQKLTTVDIVTLRVLCREGVRWRVMAIQDFKPFENLRLMAPISLQVVHVETHRCNISWEISQASHYFERHLEFEARTLSPGHTWEEAPLLTLKQKQEWICLETLTPDTQYEFQVRVKPLQGEFTTWSPWSQPLAFRTKPAALGKD
notes: also called IL-15 receptor β; IL-2/IL-15 receptor beta
